These results are taken from patent US20080003614A1 (University of Texas, published 2008).

The target of one experiment is T1, FADD (UniProt Q13158 1-208, limits assumed).
T1 sequence (looked up): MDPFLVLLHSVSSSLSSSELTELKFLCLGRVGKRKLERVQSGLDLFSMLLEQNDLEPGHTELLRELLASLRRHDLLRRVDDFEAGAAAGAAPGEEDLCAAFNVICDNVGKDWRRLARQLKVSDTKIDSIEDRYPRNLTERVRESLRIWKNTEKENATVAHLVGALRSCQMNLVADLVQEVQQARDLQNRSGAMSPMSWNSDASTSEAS
Put plainly: co-immunoprecipitation with MAVS antibody, overexpression in HEK293 cells (FIG. 12A).

The target of another experiment is T2, RIP1 (UniProt Q13546 1-671, limits assumed).
T2 construct: also called RIPI
T2 sequence (looked up): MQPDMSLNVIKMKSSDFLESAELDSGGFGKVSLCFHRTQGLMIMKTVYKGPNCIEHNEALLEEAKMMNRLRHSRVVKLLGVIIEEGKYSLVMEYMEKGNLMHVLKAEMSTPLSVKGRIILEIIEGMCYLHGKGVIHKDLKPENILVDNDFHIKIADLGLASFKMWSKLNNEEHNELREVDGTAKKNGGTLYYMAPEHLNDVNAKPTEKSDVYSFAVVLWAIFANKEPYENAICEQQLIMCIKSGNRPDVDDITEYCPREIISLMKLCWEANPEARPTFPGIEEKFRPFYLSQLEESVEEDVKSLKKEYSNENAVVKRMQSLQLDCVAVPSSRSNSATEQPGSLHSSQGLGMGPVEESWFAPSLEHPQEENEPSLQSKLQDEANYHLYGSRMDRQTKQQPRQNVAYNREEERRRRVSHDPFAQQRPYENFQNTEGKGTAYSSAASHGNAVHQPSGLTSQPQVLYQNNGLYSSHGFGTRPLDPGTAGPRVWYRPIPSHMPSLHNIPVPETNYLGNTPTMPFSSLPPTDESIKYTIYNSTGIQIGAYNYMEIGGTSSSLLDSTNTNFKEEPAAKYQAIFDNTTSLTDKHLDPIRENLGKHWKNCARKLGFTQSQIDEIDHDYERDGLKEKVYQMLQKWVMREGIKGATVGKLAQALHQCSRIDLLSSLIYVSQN
The experiment is described as above.

Procedure for FADD: (§1) (FIG. 12A) Expression vectors encoding HA-MAVS and the indicated FLAG-tagged proteins were co-transfected into HEK293 cells. 36 hours after transfection, cells were lysed in a buffer containing 0.5% Triton-X100 and 150 mM NaCl, and the proteins associated with MAVS were co-immunoprecipitated with the polyclonal antibodies against MAVS or control IgG. After washing three times with a buffer containing 0.1% Triton-X100 and 150 mM NaCl, the immunoprecipitated beads were resuspended in SDS sample buffer, and the eluted proteins immunoblotted with an antibody against FLAG or HA as indicated. Lysate represents 10% of the starting materials used for immunoprecipitation.
Procedure for RIP1: as §1

B1: HA-MAVS (N-terminal HA-tagged Mitochondrial Anti-Viral Signaling protein) (other)
chain: MPFAEDKTYKYICRNFSNFCNVDVVEILPYLPCLTARDQDRLRATCTLSGNRDTLWHLFNTLQRRPGWVEYFIAALRGCELVDLADEVASVYESYQPRTSDRPPDPLEPPSLPAERPGPPTPAAAHSIPYNSCREKEPSYPMPVQETQAPESPGENSEQALQTLSPRAIPRNPDGGPLESSSDLAALSPLTSSGHQEKDTELGSTHTAGATSSLTPSRGPVSPSVSFQPLARSTPRASRLPGPTGSVVSTGTSFSSSSPGLASAGAAEGKQGAESDQAEPIICSSGAEAPANSLPSKVPTTLMPVNTVALKVPANPASVSTVPSKLPTSSKPPGAVPSNALTNPAPSKLPINSTRAGMVPSKVPTSMVLTKVSASTVPTDGSSRNEETPAAPTPAGATGGSSAWLDSSFENRGLGSELSKPGVLASQVDSPFSGCFEDLAISASTSLGMGPCHGPEENEYKSEGTFGIHVAENPSIQLLEGNPGPPADPDGGPRPQADRKFQEREVPCHRPSPGALWLQVAVTGVLVVTLLVVLYRRRLH
notes: also called KIAA1271; pEF-HA-MAVS; not shown: N-terminal HA tag
B1: the binding result with FADD and with RIP1 was “no binding” each time.
